# Source: patent US20050191342A1
# Target: CD20 on Daudi target cells (human) (UniProt P11836)
# Experiment: cell-based or functional assay
# Chain of UniProt P11836 (P11836 whole entry): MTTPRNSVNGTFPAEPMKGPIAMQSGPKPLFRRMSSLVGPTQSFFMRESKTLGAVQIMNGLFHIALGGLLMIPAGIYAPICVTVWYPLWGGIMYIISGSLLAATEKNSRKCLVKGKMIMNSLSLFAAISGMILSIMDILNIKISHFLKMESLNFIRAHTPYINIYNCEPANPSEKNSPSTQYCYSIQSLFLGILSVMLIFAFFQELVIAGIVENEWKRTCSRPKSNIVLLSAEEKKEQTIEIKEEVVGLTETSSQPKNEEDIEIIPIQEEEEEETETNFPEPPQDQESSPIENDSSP
substance,measurement,value
Rituxan™ (antibody),"ADCC, Cr release from Daudi target cells",10 to 15%
